Consider two substances from publication PMC10231827.

For one assay, the target named is hACE2-Fc (human) (UniProt Q9BYF1). Put plainly: BLI; ACE2-Fc (10 ug/ml in kinetic buffer) captured on anti-human IgG Fc capture (AHC) biosensors, S2P glycoproteins as analyte; 30°C; association 300 s, dissociation 300 s; 1:1 binding model. (In general: BLI is a label-free optical method that tracks binding on a fibre tip over time.)
The target in assay [1] is S2P.OmiBA1-1208.H8 (SARS CoV-2 (Omicron BA.1)). Put plainly: SEC. A general note: Size exclusion chromatography separates by hydrodynamic size, large species first.

For S2P.OmiBA1-FHA (domain or fragment), in the assay with hACE2-Fc (human), the Kd stood at 0.641 nM, the Req is 0.35 nm, the koff was 0.00027 s⁻¹ and the kon came to 420000 M⁻¹ s⁻¹.

Substance S2P.OmiBA1-1208.H8 (domain or fragment) returned a percent dissociated to a lower-order form after freeze-thaw in assay [1] of 15%.

By Kd is commonly meant the constant that tells how readily two partners part at equilibrium. As usually defined, the koff is the rate constant with which the complex falls apart. Read a low koff as slow dissociation. For orientation: kon means a measure of how fast the partners come together. A high value points to faster complex formation.
